Patent publication US20090111753A1, “Nogo-A Polypeptide Fragments, Variant Nogo Receptor-1 Polypeptides, and Uses Thereof” (Yale University, priority 2004, published 2009)

Assays:
[1] = tested on: COS-7 cells; experiment: Fibroblast spreading assay on dried GST fusion protein; format: cell-based; settings: GST fusion protein presented as dried substrate
Experimental: FIG. 2A. Effects of Amino-Nogo fragments on fibroblast spreading and neurite outgrowth. Different effects of Amino-Nogo fragments on fibroblast spreading. COS-7 cells were allowed to attach and spread on slides with spots coated with 50 ng of dried GST fusion protein as indicated and stained for F-actin. GST-A: fusion protein of GST and A fragment (FIG. 1) of Amino-Nogo. GST-A, GST-B, GST-Δ20, GST-B4 and GST-B4C: fusion protein of GST and A, B, Δ20, B4 or B4C fragment (FIG. 1) of Amino-Nogo, respectively.
FIG. 2B. COS-7 cell area for experiments as in (A) was measured and plotted.
FIG. 2C. COS-7 cells were allowed to attach and spread on 96 well dishes coated with dried GST fusion proteins as indicated. Number of attached cells were counted and plotted as a function of the amount of various proteins dried per well in a 96 well dish.
It has been recognized that the Amino-Nogo-A protein inhibits non-neuronal cell spreading and axonal outgrowth when the protein is substrate bound (Chen, M. S., et al., Nature 403:434-439 (2000); Fournier, A. E., et al., Nature 409:341-346 (2001)). […] The later domain has been termed Δ20. To determine whether the NgR-interacting aa of Amino-Nogo-A described in Example 1 regulate cell spreading and axonal outgrowth, various fragments were expressed as GST fusion proteins and purified from E. coli. To generate GST fusion proteins, amino Nogo fragments were cloned in pGEX2T (Amersham Pharmacia). Native and soluble GST fusion proteins were expressed and purified as described (GrandPre, T., et al., Nature 403:439-444 (2000)). COS-7 binding assays were done as described (Fournier, A. E., et al., Nature 409:341-346 (2001)). Bound AP to COS-7 cells was measured using NIH image software. Fibroblast spreading and cDRG outgrowth assay were done as described (Fournier, A. E., et al., Nature 409:341-346 (2001)) with some modifications. Briefly, 50 μl of purified GST fusion protein or peptides diluted in PBS was pipetted into polylysine precoated 96 well plates (Becton Dickson Biocoat plates) and dried overnight at room temperature. […]

[2] = tested on: E13 chick DRG neurons; experiment: cDRG neurite outgrowth assay; format: cell-based; settings: substrate coated with GST fusion protein
Experimental: FIG. 2D. Differential effects of Amino-Nogo fragments on neurite outgrowth. Dissociated neurons from E13 chick DRGs were plated on 96 well dishes coated with lpmol protein per well and stained for neurofilament localization.
FIG. 2E. Neurite length per neuron were measured and plotted as percentage of PBS control with increasing concentration of dried protein for experiment described in […].
FIG. 6C. B24/32 peptide inhibits neurite outgrowth. Dissociated neurons from E13 chick DRG were plated onto 96 well dishes coated with 500 pmol of dried peptides as indicated and stained for neurofilament localization.
FIG. 6D. Neurite length per neuron was measured and plotted as percentage of PBS control for experiments as in (C).
It has been recognized that the Amino-Nogo-A protein inhibits non-neuronal cell spreading and axonal outgrowth when the protein is substrate bound (Chen, M. S., et al., Nature 403:434-439 (2000); Fournier, A. E., et al., Nature 409:341-346 (2001)). […] The later domain has been termed Δ20. To determine whether the NgR-interacting aa of Amino-Nogo-A described in Example 1 regulate cell spreading and axonal outgrowth, various fragments were expressed as GST fusion proteins and purified from E. coli. To generate GST fusion proteins, amino Nogo fragments were cloned in pGEX2T (Amersham Pharmacia). Native and soluble GST fusion proteins were expressed and purified as described (GrandPre, T., et al., Nature 403:439-444 (2000)). COS-7 binding assays were done as described (Fournier, A. E., et al., Nature 409:341-346 (2001)). Bound AP to COS-7 cells was measured using NIH image software. Fibroblast spreading and cDRG outgrowth assay were done as described (Fournier, A. E., et al., Nature 409:341-346 (2001)) with some modifications. Briefly, 50 μl of purified GST fusion protein or peptides diluted in PBS was pipetted into polylysine precoated 96 well plates (Becton Dickson Biocoat plates) and dried overnight at room temperature. For fibroblast spreading assay, subconfluent COS-7 cells were then plated for 1 hour in serum containing medium before fixation and staining with rho damine-phalloidin.
The same GST-Amino-Nogo proteins were tested for their ability to reduce neurite outgrowth from chick E13 DRG neurons. For cDRG outgrowth assay, dissociated E13 cDRG neurons were plated for 6 hours before fixation. […] Cell area, number of attached cells and neurite length were measured using the Imageexpress machine and software (Axon Instrument).
We reasoned that fusing the 24 aa segment of Amino-Nogo-A to NEP32 antagonist peptide might create a high affinity antagonist with a potency similar to the binding of AP-B4C-66 to NgR. […] Cell area, number of attached cells and neurite length were measured using the linageexpress machine and software (Axon Instrument).

[3] = target: T1, human NgR1 alanine mutant 163 (human, UniProt Q9BZR6 27-473); experiment: AP-ligand binding, COS-7
T1 sequence: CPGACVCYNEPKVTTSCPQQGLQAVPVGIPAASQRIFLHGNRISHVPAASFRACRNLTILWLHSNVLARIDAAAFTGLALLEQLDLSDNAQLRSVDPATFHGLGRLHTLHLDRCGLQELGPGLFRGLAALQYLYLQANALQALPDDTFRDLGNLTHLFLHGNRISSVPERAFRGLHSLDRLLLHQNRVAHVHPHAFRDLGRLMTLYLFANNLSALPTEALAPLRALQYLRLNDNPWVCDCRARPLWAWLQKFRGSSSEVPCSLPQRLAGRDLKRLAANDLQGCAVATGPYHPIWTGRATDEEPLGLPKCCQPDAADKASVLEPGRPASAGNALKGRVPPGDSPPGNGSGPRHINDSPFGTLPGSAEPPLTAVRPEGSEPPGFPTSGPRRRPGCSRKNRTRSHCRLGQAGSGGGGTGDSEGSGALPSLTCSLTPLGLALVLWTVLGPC

[4] = target: T2, human NgR1 alanine mutant 133, 136 (human, UniProt Q9BZR6 27-473); experiment: AP-ligand binding, COS-7
T2 sequence: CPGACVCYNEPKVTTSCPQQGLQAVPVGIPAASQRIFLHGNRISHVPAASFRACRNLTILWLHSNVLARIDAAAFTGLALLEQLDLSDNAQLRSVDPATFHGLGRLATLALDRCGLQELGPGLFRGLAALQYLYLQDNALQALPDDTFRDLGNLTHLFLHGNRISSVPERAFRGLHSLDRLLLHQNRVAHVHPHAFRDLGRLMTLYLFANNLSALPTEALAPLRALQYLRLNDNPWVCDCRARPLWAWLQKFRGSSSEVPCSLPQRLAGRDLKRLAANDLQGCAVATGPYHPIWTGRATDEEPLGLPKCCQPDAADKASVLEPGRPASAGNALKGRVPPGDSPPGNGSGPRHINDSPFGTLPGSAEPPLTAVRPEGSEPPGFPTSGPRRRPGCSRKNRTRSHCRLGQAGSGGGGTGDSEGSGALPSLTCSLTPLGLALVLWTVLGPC

[5] = target: T3, human NgR1 alanine mutant 158, 160 (human, UniProt Q9BZR6 27-473); experiment: AP-ligand binding, COS-7
T3 sequence: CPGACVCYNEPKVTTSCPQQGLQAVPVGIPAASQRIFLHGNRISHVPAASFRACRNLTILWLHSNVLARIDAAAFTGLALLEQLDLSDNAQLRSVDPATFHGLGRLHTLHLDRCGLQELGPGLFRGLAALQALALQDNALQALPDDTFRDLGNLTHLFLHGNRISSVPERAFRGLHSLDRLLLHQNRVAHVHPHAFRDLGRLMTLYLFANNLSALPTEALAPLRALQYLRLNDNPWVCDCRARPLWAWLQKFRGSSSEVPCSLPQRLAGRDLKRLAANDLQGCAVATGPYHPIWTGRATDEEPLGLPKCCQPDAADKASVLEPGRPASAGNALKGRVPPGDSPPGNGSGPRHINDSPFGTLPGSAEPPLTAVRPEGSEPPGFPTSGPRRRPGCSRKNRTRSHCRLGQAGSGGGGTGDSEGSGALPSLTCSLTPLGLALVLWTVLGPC

[6] = target: T4, human NgR1 alanine mutant 182, 186 (human, UniProt Q9BZR6 27-473); experiment: AP-ligand binding, COS-7
T4 sequence: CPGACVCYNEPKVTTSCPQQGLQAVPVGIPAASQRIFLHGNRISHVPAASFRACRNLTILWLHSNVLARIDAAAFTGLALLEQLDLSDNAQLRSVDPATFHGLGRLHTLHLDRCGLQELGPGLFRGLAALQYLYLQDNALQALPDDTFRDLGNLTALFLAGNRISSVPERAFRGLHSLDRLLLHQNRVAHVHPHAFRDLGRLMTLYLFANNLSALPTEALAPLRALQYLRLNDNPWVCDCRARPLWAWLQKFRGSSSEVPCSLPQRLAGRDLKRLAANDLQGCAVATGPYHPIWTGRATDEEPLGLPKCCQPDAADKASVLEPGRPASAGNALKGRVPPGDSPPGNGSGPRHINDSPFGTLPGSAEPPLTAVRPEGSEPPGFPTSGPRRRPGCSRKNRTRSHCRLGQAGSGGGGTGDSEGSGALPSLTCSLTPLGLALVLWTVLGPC

[7] = target: T5, human NgR1 alanine mutant 232, 234 (human, UniProt Q9BZR6 27-473); experiment: AP-ligand binding, COS-7
T5 sequence: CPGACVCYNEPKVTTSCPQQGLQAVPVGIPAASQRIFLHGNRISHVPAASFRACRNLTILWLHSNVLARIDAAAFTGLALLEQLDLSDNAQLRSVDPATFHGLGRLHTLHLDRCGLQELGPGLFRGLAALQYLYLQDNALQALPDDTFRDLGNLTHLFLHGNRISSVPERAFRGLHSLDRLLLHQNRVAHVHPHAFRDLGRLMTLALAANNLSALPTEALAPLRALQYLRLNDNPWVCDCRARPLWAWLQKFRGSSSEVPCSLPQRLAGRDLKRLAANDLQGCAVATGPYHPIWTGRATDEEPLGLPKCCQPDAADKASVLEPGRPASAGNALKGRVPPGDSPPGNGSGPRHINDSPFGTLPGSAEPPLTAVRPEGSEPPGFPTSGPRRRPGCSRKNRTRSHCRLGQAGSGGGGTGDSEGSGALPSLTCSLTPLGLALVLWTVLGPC

[8] = target: T6, human NgR1 alanine mutant 82, 179 (human, UniProt Q9BZR6 27-473); experiment: AP-ligand binding, COS-7
T6 sequence: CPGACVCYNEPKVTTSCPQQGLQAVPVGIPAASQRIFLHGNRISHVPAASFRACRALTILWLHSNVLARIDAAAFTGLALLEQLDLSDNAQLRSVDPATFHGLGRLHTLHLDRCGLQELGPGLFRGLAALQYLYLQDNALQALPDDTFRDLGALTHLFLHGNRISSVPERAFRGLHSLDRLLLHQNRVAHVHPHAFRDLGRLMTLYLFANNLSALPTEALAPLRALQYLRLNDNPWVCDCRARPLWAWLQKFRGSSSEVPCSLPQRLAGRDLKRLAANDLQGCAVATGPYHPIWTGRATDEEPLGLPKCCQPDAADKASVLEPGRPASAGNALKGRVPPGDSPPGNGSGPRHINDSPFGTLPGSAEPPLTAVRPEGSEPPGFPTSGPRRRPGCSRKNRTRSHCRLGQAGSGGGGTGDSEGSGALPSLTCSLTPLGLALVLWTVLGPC

B1: B4: fusion protein of GST and B4 fragment (carboxyl terminal 150 aa) of Amino-Nogo (protein)
chain: SKTDSFSKLAREYTDLEVSHKSEIANAPDGAGSLPCTELPHDLSLKNIQPKVEEKISFSDDFSKNGSATSKVLLLPPDVSALATQAEIESIVKPKVLVKEAEKKLPSDTEKEDRSPSAIFSAELSKTSVVDLLYWRDIKKTG
modifications: left off: a dimerising Fc or GST
notes: fusion protein of GST and B4 fragment (carboxyl terminal 150 aa) of Amino-Nogo
[1]
  COS-7 cell attachment and spreading: do not alter COS-7 morphology
[2]
  neurite outgrowth from chick E13 DRG neurons: not inhibitory for axonal growth

B2: B fragment of Amino-Nogo: fusion protein of GST and B fragment of Amino-Nogo (protein, UniProt Q9NQC3 622-1018, looked up, fragment)
chain: SAVPSAGASVIQPSSSPLEASSVNYESIKHEPENPPPYEEAMSVSLKKVSGIKEEIKEPENINAALQETEAPYISIACDLIKETKLSAEPAPDFSDYSEMAKVEQPVPDHSELVEDSSPDSEPVDLFSDDSIPDVPQKQDETVMLVKESLTETSFESMIEYENKEKLSALPPEGGKPYLESFKLSLDNTKDTLLPDEVSTLSKKEKIPLQMEELSTAVYSNDDLFISKEAQIRETETFSDSSPIEIIDEFPTLISSKTDSFSKLAREYTDLEVSHKSEIANAPDGAGSLPCTELPHDLSLKNIQPKVEEKISFSDDFSKNGSATSKVLLLPPDVSALATQAEIESIVKPKVLVKEAEKKLPSDTEKEDRSPSAIFSAELSKTSVVDLLYWRDIKKTG
modifications: GST fusion
[1]
  COS-7 cell attachment and spreading: active

B3: AP-fused Amino-Nogo fragment B4C (a.a. 950-1018) (ligand)
chain: LLPPDVSALATQAEIESIVKPKVLVKEAEKKLPSDTEKEDRSPSAIFSAELSKTSVVDLLYWRDIKKTG
notes: also called AmNg B4C; AP-B4C; not shown: alkaline phosphatase (AP), vector pcAP6
[3]
  binding result: no binding
[4]
  binding result: no binding
[5]
  binding result: no binding
[6]
  binding result: no binding
[7]
  binding result: no binding
[8]
  binding result: no binding

B4: AP-Nogo-66 (ligand, UniProt Q9NQC3 1055-1120, looked up)
chain: RIYKGVIQAIQKSDEGHPFRAYLESEVAISEELVQKYSNSALGHVNCTIKELRRLFLVDDLVDSLK
notes: domain: Nogo-66; construct described elsewhere (Fournier 2001); also called AP-Ng66; Ng66; not shown: alkaline phosphatase (AP); construct described elsewhere
[3]
  binding result: no binding
[4]
  binding result: no binding
[5]
  binding result: no binding
[6]
  binding result: no binding
[7]
  binding result: no binding
[8]
  binding result: no binding
